Assay results published in patent publication US20150051149A1 (published 2015).
Each block holds one binder with its values, some of them ahead of it.

Target: T1, human PXR-GST (Invitrogen) (human, UniProt O75469 111-434, limits assumed)
T1 construct: Captured on an anti-GST antibody chip; also called GST-PXR; GST-tagged PXR; not shown: GST tag
T1 sequence (looked up): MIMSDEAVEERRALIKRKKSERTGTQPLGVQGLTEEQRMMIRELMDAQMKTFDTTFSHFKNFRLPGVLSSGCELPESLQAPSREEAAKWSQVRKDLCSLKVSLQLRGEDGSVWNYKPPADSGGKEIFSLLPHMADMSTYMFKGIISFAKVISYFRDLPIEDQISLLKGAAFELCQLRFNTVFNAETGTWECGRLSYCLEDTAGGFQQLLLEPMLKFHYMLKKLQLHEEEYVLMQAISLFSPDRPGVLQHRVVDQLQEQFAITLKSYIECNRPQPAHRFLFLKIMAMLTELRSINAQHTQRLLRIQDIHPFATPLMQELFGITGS
Test: SPR, Biacore T100, human PXR-GST captured on anti-GST antibody

kon: 16200 M⁻¹ s⁻¹
B1: Adnectin-3 (designed binder)
chain: MASTSGVSDVPRDLEVVAATPTSLLISWDAPAVPVSKYVIYYWPGALISSMQAFKVPGSKSTATISGLKPGVLYSIVVDALTGDGQGSYVWDPITITYRTEGSGSHHHHHH

kon: 162000 M⁻¹ s⁻¹
B2: Adnectin-2 (designed binder)
chain: MASTSGVSDVPRDLEVVAATPTSLLISWDAPAVTVNNYRITYQPLLQGSSIQHFDVPGSKSTATISGLKPGVGYQITVYASTYTHSKAYYSLPISIYYRTEGSGSHHHHHH
